In patent publication US10034836B2, “Formulations of guanylate cyclase C agonists and methods of use” (SYNERGY PHARMACEUTICALS, INC., priority 2008, dated 2018):
Where no end group is shown, it is not given here. [ ]: non-standard residue; d: D form.

How the values were obtained:
[1] = system: T84 cells; test: cGMP synthesis in T84 cells, GCC agonist alone or in combination with PDE inhibitors; type: cell-based, human; settings: 100 μM, 30 min
Procedure: FIG. 9: Stimulation of cGMP synthesis in T84 cells by SP-304 (0.1 μM) either alone or in combination with the phosphodiesterase (PDE) inhibitors Sulindac Sulfone (100 μM) or Zaprinast (100 μM). T84 cells were exposed to various treatments, as indicated, for 30 min and the cell lysates were used to determine the intracellular cGMP levels. Data points shown are the average of duplicate measurements.
FIG. 10: Stimulation of cGMP synthesis in T84 cells by SP-304 (0.1 or 1.0 μM) either alone or in combination with incremental concentrations of phosphodiesterase (PDE) inhibitors, as indicated. T84 cells were exposed to various treatments, as indicated, for 30 min and the cell lysates were used to determine the intracellular cGMP levels. Data points shown are the average of duplicate measurements. […]
SS and ZAP in combination with SP-304 or SP-333 were evaluated to see if these PDE inhibitors had any synergistic effects on intracellular accumulation of cGMP (FIG. 9-12). […]
For the results shown in FIG. 9, cyclic GMP synthesis in T84 cells was assessed essentially as described in Shailubhai et al., Cancer Research 60, 5151-5157 (2000). […] Following centrifugation and the addition of NaOH (0.1 N) to neutralize the pH, intracellular cGMP levels were determined in lysates using a cGMP ELISA kit (Cat. No. 581021; Cayman Chemical, Ann Arbor, Mich.). […]

[2] = Stability in simulated intestinal fluid (SIF), biological activity by cGMP synthesis in T84 cells; type: in vitro ADME; settings: SIF, two hour incubation (FIG. 7A)
Procedure: FIG. 2A: Biological activity of SP-304 incubated for varying lengths of time in simulated intestinal fluid (SIF). SP-304 samples were incubated for 0, 30, 60, 90, 150, and 300 min, respectively, and then tested for their ability to stimulate cGMP synthesis in T84 cells. The cGMP stimulation activity in the sample at 0 min of incubation time in SIF was taken as 100% biological activity. The activities of the other SP-304 incubation samples were calculated as the percentage of activity relative to that of the 0 min sample. Data points shown are the average of triplicate measurements±SD.
(§1) FIG. 7A: Biological activity of SP-333 incubated for varying lengths of time in simulated intestinal fluid (SIF). SP-333 samples incubated for 0, 5, 10, 30, 60, and 120 min, respectively, were tested for their ability to stimulate cGMP synthesis in T84 cells. The control sample marked as C120 was produced by incubating SP-333 with heat inactivated SIF for 120 min. Samples from the incubations were removed and heated at 95° C. for 5 min to inactivate digestive enzymes and then used to stimulate cyclic GMP synthesis in T84 cells. The cGMP stimulation activity in the sample at 0 min of incubation time in SIF was taken as 100% biological activity. The activities of the other SP-304 incubation samples were calculated as the percentage of activity relative to that of the 0 min sample. Data points shown are the average of triplicate measurements±SD.
as §1, with “FIG. 7B:” for “FIG. 7A:”, “of SP-332” for “of SP-333”, “incubating SP-332” for “incubating SP-333”
FIG. 7C: Biological activity of SP-304 incubated for varying lengths of time in simulated intestinal fluid (SIF). SP-304 samples incubated for 0, 10, and 60 min, respectively, were tested for their ability to stimulate cGMP synthesis in T84 cells. The control samples marked as C0 and C60 were produced by incubating SP-304 with heat inactivated SIF for 0 and 60 min, respectively. Samples from the incubations were removed and heated at 95° C. for 5 min to inactivate digestive enzymes and then used to stimulate cyclic GMP synthesis in T84 cells. The cGMP stimulation activity in the sample at 0 min of incubation time in SIF was taken as 100% biological activity. The activities of the other SP-304 incubation samples were calculated as the percentage of activity relative to that of the 0 min sample. […]
FIGS. 7G-1-7G-5: Incubation of SP-333 with SIF for 2, 6, 12 and 24 hrs. Effect of SIF digestion on the activity of SP-333 in T84 stimulation assay was determined (FIG. 7G-1) and samples were also analyzed by HPLC (FIGS. 7G2-5). […]
The stability of SP-304 was also evaluated after incubation with simulated intestinal fluid (SIF) by measuring its biological activity and by HPLC analyses (FIGS. 2A & 2B). […]

[3] = Stability in simulated intestinal fluid (SIF), HPLC analysis; type: in vitro ADME; settings: SIF
Procedure: FIG. 2B: HPLC chromatographic spectra of SP-304 samples after incubation with: (A) heat-inactivated SIF for 300 minutes, or (B) SIF for 120 minutes. The arrows show the elution position of SP-304.
FIGS. 7D-1-7D-2: HPLC chromatograms of SP-304 incubated for 0 min in SIF (FIG. 7D-1) and 60 min in SIF (FIG. 7D-2), respectively. The arrows indicate the elution positions of the parent SP-304 peptides. […] These new peptide peaks represent degradation products of SP-304.
FIGS. 7E-1-7-E2: HPLC chromatograms of SP-332 incubated for 0 min in SIF (FIG. 7E-1) and 120 min in SIF (FIG. 7E-2), respectively. The arrows indicate the elution positions of the parent SP-332 peptides.
FIGS. 7F-1-7F-2: HPLC chromatograms of SP-333 incubated for 0 min in SIF (FIG. 7F-1) and 120 min in SIF (FIG. 7F-2), respectively. The arrows indicate the elution positions of the parent SP-333 peptides.
FIGS. 7G-1-7G-5: Incubation of SP-333 with SIF for 2, 6, 12 and 24 hrs. Effect of SIF digestion on the activity of SP-333 in T84 stimulation assay was determined (FIG. 7G-1) and samples were also analyzed by HPLC (FIGS. 7G2-5). The elution positions of the parent peptide and its metabolites are indicated by arrows.
The physical stability of SP-304 peptide exposed to SIF was evaluated by HPLC using the method described for SGF digestion. […]

[4] = target: T1, intestinal GC-C receptor (Homo sapiens, UniProt P25092); test: Cyclic GMP stimulation assay in T84 cells; type: cell-based; settings: 30 min exposure (FIG. 5)
T1 construct: confluent monolayers of T-84 cells in 24-well plates; host or cells: T84 human colon carcinoma cells
Source text: FIG. 4: Biological activity of truncated peptides of 16-mer SP-304, as measured by stimulation of cGMP synthesis in T84 cells. SP-338 15-mer peptide is indentical to SP-304 except that it lacks Leu at the C-terminus. SP-327, SP-329 and SP-331 lack Leu at their C-termini relative to their corresponding parents, SP-326, SP-328 and SP-330, respectively. Data points shown are the average of duplicate measurements.
FIG. 5: Stimulation of cGMP synthesis in T84 cells by SP-304 and similar analogs. T84 cells were exposed to test peptides for 30 min and cell lysates were then used to determine intracellular cGMP levels. Data points shown are the average of triplicate measurements±SD.
FIG. 6: Stimulation of cGMP synthesis in T84 cells by SP-339 (linaclotide) and other linaclotide analogs. T84 cells were exposed to test peptides for 30 min and cell lysates were then used to determine intracellular cGMP levels. Data points shown are the average of triplicate measurements±SD.
FIG. 8: Stimulation of cGMP synthesis in T84 cells by the peggylated analogs of SP-333. T84 cells were exposed to the indicated peptides for 30 min and cell lysates were used to determine intracellular cGMP levels. Data points shown are the average of triplicate measurements±SD.
After the 30 min incubation, the medium was aspirated and the reaction was terminated by the addition of 3% perchloric acid. Following centrifugation and the addition of NaOH (0.1 N) to neutralize the pH, intracellular cGMP levels were determined in lysates using a cGMP ELISA kit (Cat. No. 581021; Cayman Chemical, Ann Arbor, Mich.). Peptide incubations were run in duplicate, and samples taken from each incubation were run as duplicates in the ELISA test.
The ability of the GCC agonist peptide to bind to and activate the intestinal GC-C receptor was tested using T84 human colon carcinoma cell line. Human T84 colon carcinoma cells were obtained from the American Type Culture Collection. Cells were grown in a 1:1 mixture of Ham's F-12 medium and Dulbecco's modified Eagle's medium (DMEM) supplemented with 10% fetal bovine serum, 100 U penicillin/ml, and 100 μg/ml streptomycin. The cells were fed fresh medium every third day and split at a confluence of approximately 80%.
Biological activity of the GCC agonist peptides was assayed as previously reported (Shailubhai, et al., Cancer Research 60, 5151-5157 (2000)). Briefly, the confluent monolayers of T-84 cells in 24-well plates were washed twice with 250 μl of DMEM containing 50 mM HEPES (pH 7.4), pre-incubated at 37° C. for 10 min with 250 μl of DMEM containing 50 mM HEPES (pH 7.4) and 1 mM isobutylmethylxanthine (IBMX), followed by incubation with GCC agonist peptides (0.1 nM to 10 µM) for 30 min. The medium was aspirated, and the reaction was terminated by the addition of 3% perchloric acid. Following centrifugation, and neutralization with 0.1 N NaOH, the supernatant was used directly for measurements of cGMP using an ELISA kit (Caymen Chemical, Ann Arbor, Mich.).
An additional strategy to render peptides more resistant towards digestion by digestive proteases is to peggylate them at the N- and C-terminus. The peptide SP-333 was peggylated with the aminoethyloxy-ethyloxy-acetic acid (Aeea) group at the C-terminus (SP-347) or at the N-terminus (SP-350) or at both termini (SP-343). Cyclic GMP synthesis in T84 cells was measured by the method as described above.

T1 sequence (P25092 24-1073): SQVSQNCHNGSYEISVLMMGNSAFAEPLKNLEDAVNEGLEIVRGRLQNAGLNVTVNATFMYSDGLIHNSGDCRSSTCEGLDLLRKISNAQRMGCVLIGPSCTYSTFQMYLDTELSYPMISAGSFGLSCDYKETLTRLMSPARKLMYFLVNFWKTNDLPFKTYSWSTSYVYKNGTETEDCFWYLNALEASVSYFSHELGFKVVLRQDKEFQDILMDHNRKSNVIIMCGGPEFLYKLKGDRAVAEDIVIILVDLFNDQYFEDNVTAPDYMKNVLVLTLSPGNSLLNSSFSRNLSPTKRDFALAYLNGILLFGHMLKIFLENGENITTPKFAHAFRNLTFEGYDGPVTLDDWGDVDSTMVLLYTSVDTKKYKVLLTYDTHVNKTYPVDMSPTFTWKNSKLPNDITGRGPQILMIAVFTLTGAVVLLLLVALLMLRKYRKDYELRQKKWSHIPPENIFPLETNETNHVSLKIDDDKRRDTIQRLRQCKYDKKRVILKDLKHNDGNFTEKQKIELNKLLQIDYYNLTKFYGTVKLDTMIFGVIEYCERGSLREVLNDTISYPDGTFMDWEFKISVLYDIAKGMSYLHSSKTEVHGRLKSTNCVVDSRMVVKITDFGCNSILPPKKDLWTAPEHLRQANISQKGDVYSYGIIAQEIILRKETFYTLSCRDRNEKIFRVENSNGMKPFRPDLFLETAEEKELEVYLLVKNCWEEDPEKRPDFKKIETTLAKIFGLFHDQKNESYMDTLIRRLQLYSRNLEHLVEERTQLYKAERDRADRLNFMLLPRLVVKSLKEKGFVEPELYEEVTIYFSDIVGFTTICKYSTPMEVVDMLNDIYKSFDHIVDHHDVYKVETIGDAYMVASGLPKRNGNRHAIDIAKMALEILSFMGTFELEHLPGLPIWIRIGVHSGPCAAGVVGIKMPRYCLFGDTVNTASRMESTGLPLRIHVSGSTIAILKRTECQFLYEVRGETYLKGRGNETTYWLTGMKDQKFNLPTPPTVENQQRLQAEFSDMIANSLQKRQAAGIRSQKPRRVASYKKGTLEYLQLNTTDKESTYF

With `CC1=C(CC(=O)O)c2cc(F)ccc2/C1=C\c1ccc(S(C)(=O)=O)cc1` [Sulindac Sulfone] the “intracellular accumulation of cGMP, PDE inhibitor alone” value [1] was “did not enhance”.
For “dAsn^1-Asp^2-Glu^3-Cys^4-Glu^5-Leu^6-Cys^7-Val^8-Asn^9-Val^10-Ala^11-Cys^12-Thr^13-Gly^14-Cys^15-dLeu^16 ([dN]DECELCVNVACTGC[dL]; disulfide (positions not given here); also: two disulfides, pairing not given here) [SP-333]”, the “biological activity remaining after incubation in SIF” value [2] was about 100%, the “HPLC analysis of parent peptide after incubation with SIF” value ([3]; 120 min) was “remained virtually intact” and the “degradation in SIF” value ([3]; up to 24 hours (FIG. 7G)) was “very little degradation”. The “ability to stimulate cGMP synthesis in T84 cells relative to SP-304” value [4] was “comparable ability”.
